# Assay results reported in article PMC2724299 (Nucleic Acids Research, 2009).
# Target: the molecule itself
# Assay: SEC
protein,measurement,value
"PAE-EndA linker variant LPEI (6×His-PAE0789 fused through -Leu-Pro-Glu-Ile- to PAE2269) (enzyme, Pyrobaculum aerophilum) MDVLQEQVFKDLKSRGFKIIEQLDDKIFIAEKKERYLFYVMVEGVEVTIQTLLSVINMGETLSMPVVLALVSNDGTVTYYYVRKIRLPRNIYAEAVLPEIMIGYLRGLAVIVEDVEFARRLYKEGFYGRFLGYDKVKRDEVEKINAPLILGLYEALYLAEKGRLKVMGEDGREVAPEELAALGRERMRNFDEIYKIYKYFRDLGYVVKSGLKFGALFSVYEKGPGIDHAPMVVVFLEPDKGISATDITRGGRLSHSVRKTWTLATVLRQTGEVVLLGFGWARL",stoichiometry N,2
